# Paper PMC4520770 (Journal of molecular biology, 2015)
# 5/6‑FAM = 5/6-fluorescein amidite
# Molecular target: KSBcl-2 (Kaposi's sarcoma-associated herpesvirus Bcl-2 homolog), c-myc-tagged (Kaposi's sarcoma-associated herpesvirus …, UniProt P90504 1-175)
# Test: fluorescence polarisation
row,Binder,Kd
1,{5/6‑FAM}-RPNIWLTQRLQRTGDGLNAYYAR-NH2 [KScomp],13 nM
2,{5/6‑FAM}-RPIIWIGQEISRVGDRENAYKAR-NH2 [BL6-22_Y4eK],750 nM
3,{5/6‑FAM}-RPIIWIGQEISRVGDRENAYYAR-NH2 [BL6-22],1100 nM
4,{5/6‑FAM}-RPQIWIHQGLQRLGDGLNAYYAR-NH2 [KL6-7],1.6 nM
5,{5/6‑FAM}-RPQIWIHQGLQRLGDGLNAYKAR-NH2 [KL6-7_Y4eK],2.9 nM
6,{5/6‑FAM}-RPQIWIHQGLQRLGAGLNAYYAR-NH2 [KL6-7_D3fA],180 nM
